These results are taken from patent US20220380457A1.

This assay addresses FcγRIIIA (CD16α) on human NK cells in whole blood (human) (UniProt P08637). Kind of assay: cell-based or functional assay.
Sequence of UniProt P08637 (P08637 17-254): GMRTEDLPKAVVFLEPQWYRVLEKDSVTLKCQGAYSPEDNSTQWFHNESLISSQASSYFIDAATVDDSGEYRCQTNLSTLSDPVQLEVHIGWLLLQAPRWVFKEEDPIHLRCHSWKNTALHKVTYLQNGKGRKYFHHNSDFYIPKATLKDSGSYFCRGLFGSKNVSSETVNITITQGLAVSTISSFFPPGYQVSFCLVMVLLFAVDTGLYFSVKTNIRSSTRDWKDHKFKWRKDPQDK

Substance “WT rituximab (soluble antibody, wild type hinge)” gave an NK cell activation in whole human blood, CD16/CD62L staining, FIG. 11A control row, left lower quadrant (downregulation of CD16α) of 45.2; an NK cell activation in whole human blood, CD107α/CD69 staining, FIG. 11B control row, right upper quadrant (upregulation of CD107α) of 35.3; an NK cell activation with IdeZ, FIG. 11A IdeZ row, left lower quadrant of 8.8; an NK cell activation with IdeZ, FIG. 11B IdeZ row, right upper quadrant of 1.9. The depletion of CD19(+) B cells with IdeZ against WT rituximab in control blood stood at 63% and the residual CD19(+) B cells in blood with IdeZ, FIG. 11C IdeZ row, right lower quadrant was 9.8.
